# Reference: patent publication US20090156485A1
# What was measured:
# [1] = target: human skin (skin keratin) (human); assay: quantitative skin binding test on human keratinocytes in microtiter plates, anti-His antibody, TMB
# [2] = target: human skin (skin keratin) (human); assay: quantitative skin binding test on human keratinocytes, after 10% strength SDS treatment
# [3] = target: human hair (hair keratin) (human); assay: quantitative hair binding test, anti-polyHis peroxidase conjugate, TMB
# [4] = target: human hair (hair keratin) (human); assay: quantitative hair binding test, after 10% strength SDS treatment
Binder,Absorption at 405 nm (A405 nm (standardized to the surface)) [1],Absorption at 405 nm (A405 nm (standardized to the surface)) [2],Absorption at 405 nm (A405 nm (standardized to the surface)) [3],Absorption at 405 nm (A405 nm (standardized to the surface)) [4]
"KBD-B (keratin-binding domain B of human desmoplakin, SEQ ID No.: 166) (protein) MRGSHHHHHHGSACELEPHTGLLLLSVQKRSMSFQGIRQPVTVTELVDSGILRPSTVNELESGQISYDEVGERIKDFLQGSSCIAGIYNETTKQKLGIYEAMKIGLVRPGTALELLEAQAATGFIVDPVSNLRLPVEEAYKRGLVGIEFKEKLLSAERAVTGYNDPETGNIISLFQAMNKELIEKGHGIRLLEAQIATGGIIDPKESHRLPVDIAYKRGYFNEELSEILSDPSDDTKGFFDPNTEENLTYLQLKERCIKDEETGLCLLPLKEKKKQVQTSQKNTLRKRRVVIVDPETNKEMSVQEGVDLQPSLIS",0.93,0.185,,
"KBD-D (keratin-binding domain of human plakophilin, SEQ ID No.: 168) (protein) MRGSHHHHHHGSACELGTMNHSPLKTALAYECFQDQDNSTLALPSDQKMKTGTSGRQRVQEQVMMTVKRQKSKSSQSSTLSHSNRGSMYDGLADNYNYGTTSRSSYYSKFQAGNGSWGYPIYNGTLKREPDNRRFSSYSQMENWSRHYPRGSCNTTGAGSDICFMQKIKASRSEPDLYCDPRGTLRKGTLGSKGQKTTQNRYSFYSTCSGQKAIKKCPVRPPSCASKQDPVYIPPISCNKDLSFGHSRASSKICSEDIECSGLTIPKAVQYLSSQDEKYQAIGAYYIQHTCFQDESAKQQVYQLGGICKLVDLLRSPNQNVQQAAAGALRNLVFRSTTNKLETRRQNGIREAVSLLRRTGNAEIQKQLTGLLWNLSSTDELKEELIADALPVLADRVIIPFSGWCDGNSNMSREVVDPEVFFNATGCLRNLSSADAGRQTMRNYSGLIDSLMAYVQNCVAASRCDDKSVENCMCVLHNLSYRLDAEVPTRYRQLEYNARNAYTEKSSTGCFSNKSDKMMNNNYDCPLPEEETNPKGSGWLYHSDAIRTYLNLMGKSKKDATLEACAGALQNLTASKGLMSSGMSQLIGLKEKGLPQIARLLQSGNSDVVRSGASLLSNMSRHPLLHRVMGNQVFPEVTRLLTSHTGNTSNSEDILSSACYTVRNLMASQPQLAKQYFSSSMLNNIINLCRSSASPKAAEAARLLLSDMWSSKELQGVLRQQGFDRNMLGTLAGANSLRNFTSRF",3.69,3.15,0.88,0.62
